Where two headings read alike, the source gives them in different places.

Assay [1] concerns the target T1, fusion protein of a human IgG1 Fc domain and human LAP-TGFβ1 (human, UniProt P01137 30-390).
T1 construct: printed both as Fc-huB1 and LAP-TGFβ-Fc; also called Fc-huB1; Fc-human LAP
The assay is described as follows: BLI, 2:1 model, component 1. The procedure: (§1) The 20E6_H0.2aL1_IgG1 antibody was biotinylated using EZ-Link SulfoNHS-LC-Biotin (ThermoFisher). A streptavidin-functionalized tip was equilibrated in binding buffer (10 mM sodium phosphate, 150 mM sodium chloride, 1% (w/v) bovine serum albumin, 0.05% (w/v) sodium azide, pH 7.4) and dipped in a 10 μg/mL solution of biotinylated anti-LAP in binding buffer for 30 seconds to load the tip with antibody. The antibody-loaded tip was then washed in binding buffer and placed in a solution containing 0-24 nM of a fusion protein having a human IgG1 Fc domain fused to either human LAP-TGFβ1, human LAP-TGFβ2 or human LAP-TGFβ3. The antigen was allowed to bind to antibody for 5 minutes (association phase), and then the tip was moved to binding buffer (dissociation phase). The association and dissociation phases were fit to a 2:1 heterogenous ligand binding model to determine the binding rate constants. As shown in FIG. 21A and Table 17, 20E6_H0.2aL1_IgG1 bound with sub-nanomolar affinity to human LAP-TGFβ1, but not to human LAP-TGFβ2 (FIG. 21B) or LAP-TGFβ3 (FIG. 21C).
(§2) The binding of 20E6_H0.2aL1_IgG1 antibody and 20E6_H0.2aL1_hIgG4mut antibody to LAP-TGFβ1 of various species was examined by bio-layer interferometry using the method described in Example 12, except that the antibody-loaded tip was placed in a solution containing 0-24 nM of a fusion protein having a human IgG1 Fc domain fused to either mouse, rat, cynomolgus monkey, or human LAP-TGFβ1.
A general note: Biolayer interferometry detects binding as a change in optical thickness at a sensor tip.

The target in assay [2] is T2, fusion protein of a human IgG1 Fc domain and cynomolgus monkey LAP-TGFβ1 (human; cynomolgus monkey).
T2 construct: also called cynomolgus monkey LAP-TGFβ-Fc
Description: BLI, 2:1 model, component 1. The procedure: as §1, §2

Assay [3] addresses T3, fusion protein of a human IgG1 Fc domain and rat LAP-TGFβ1 (human; rat, UniProt P17246 30-390, limits assumed).
T3 construct: also called rat LAP-TGFβ-Fc
Description: BLI, 2:1 model, component 1. The procedure: as §1, §2

Assay [4] addresses T4, fusion protein of a human IgG1 Fc domain and mouse LAP-TGFβ1 (human; mouse, UniProt P04202 30-390).
T4 construct: also called mouse LAP-TGFβ-Fc
Description: BLI, 2:1 model, component 1. The procedure:
as §1, §2

For assay [5], the target named is T1, fusion protein of a human IgG1 Fc …. Description: BLI, 2:1 model, component 2. The procedure: as §1, §2
Assay [6] concerns the target T2, fusion protein of a human IgG1 Fc …. Description: BLI, 2:1 model, component 2. The procedure: as §1, §2
Assay [7] concerns the target T3, fusion protein of a human IgG1 Fc …. The assay is described as follows: BLI, 2:1 model, component 2. The procedure: as §1, §2
Assay [8] deals with T4, fusion protein of a human IgG1 Fc …. Description: BLI, 2:1 model, component 2. The procedure: as §1, §2
The target of assay [9] is T5, human LAP-TGFβ1 overexpressed on cells (human, UniProt P01137 30-390).
T5 construct: HT1080 or P3U1 cells overexpressing wild-type human LAP-TGFβ1; also called HT1080-huB1; HT1080-hβ1
T5 sequence (P01137 30-390): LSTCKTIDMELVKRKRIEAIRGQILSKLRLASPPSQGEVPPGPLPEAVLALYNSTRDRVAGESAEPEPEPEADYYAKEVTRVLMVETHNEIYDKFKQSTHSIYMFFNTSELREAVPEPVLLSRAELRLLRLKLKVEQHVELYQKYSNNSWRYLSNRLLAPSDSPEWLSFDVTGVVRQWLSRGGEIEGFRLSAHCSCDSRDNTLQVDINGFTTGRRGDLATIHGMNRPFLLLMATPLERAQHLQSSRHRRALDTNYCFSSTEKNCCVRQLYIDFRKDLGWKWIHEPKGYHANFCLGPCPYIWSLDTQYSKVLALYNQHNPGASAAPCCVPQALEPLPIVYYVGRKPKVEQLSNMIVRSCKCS
The assay is described as follows: flow cytometry; black bar HT1080-huB1, grey bar HT1080. The procedure:
First, the ability of the humanized 20E6 candidates to bind to HT1080 cells overexpressing human TGFβ1 was tested by flow cytometry. HT1080 cells over-expressing human LAP-TGFβ1 were placed in a round-bottom 96-well plate at density of 40,000 cells/well. The cells were washed with FACS buffer (25 mM HEPES, 2 mM EDTA, 2% fetal bovine serum in Hank's Balanced Salt Solution). A volume (50 μL) of 1:200 diluted TruStain Human FcX (BioLegend) was added to each well, followed by 50 μL of 100 ng/μL of humanized 20E6 antibody construct. The antibody was allowed to bind for 20 minutes. The cells were washed twice with FACS buffer. The cells were labeled for 15 minutes with Alexa647-anti Human IgG (Jackson Immunoresearch), washed twice with FACS buffer, and analyzed by flow cytometry.
(In general: In flow cytometry, cells or beads pass a laser one at a time.)

For assay [10], the target named is T5, human LAP-TGFβ1 overexpressed on cells. The description is as above. This is another data set of the same source.
Assay [11] has as its target T1, fusion protein of a human IgG1 Fc …. Description: BLI, signal change on binding. The procedure: (§3) Binding to human TGFβ1 of a subset of candidates was also tested by bio-layer interferometry (Octet). A streptavidin coated tip was equilibrated for 60 seconds in binding buffer (10 mM sodium phosphate, 150 mM sodium chloride, 1% bovine serum albumin, 0.05% sodium azide). The tip was then dipped in 10 μg/mL biotinylated antibody in binding buffer. After 15 seconds, the tip was washed in binding buffer for 60 seconds, and then dipped in 0-24 nM Fc-human LAP. Analyte association was measured for 5 minutes. The tip was transferred to binding buffer alone, and analyte dissociation was measured for 5 minutes. The association and dissociation data were fit to a 1:1 binding model.

Assay [12] has the same target. The assay is described as follows: BLI, antibody on tip, 1:1 model. The procedure:
as §3

The target of assay [13] is T5, human LAP-TGFβ1 overexpressed on cells. Description: cell-based or functional assay.
The target in assay [14] is murine LAP-TGFβ1 overexpressed on cells (mouse, UniProt P04202 30-390). Description: cell-based or functional assay.
Sequence of murine LAP-TGFβ1 overexpressed on cells (P04202 30-390): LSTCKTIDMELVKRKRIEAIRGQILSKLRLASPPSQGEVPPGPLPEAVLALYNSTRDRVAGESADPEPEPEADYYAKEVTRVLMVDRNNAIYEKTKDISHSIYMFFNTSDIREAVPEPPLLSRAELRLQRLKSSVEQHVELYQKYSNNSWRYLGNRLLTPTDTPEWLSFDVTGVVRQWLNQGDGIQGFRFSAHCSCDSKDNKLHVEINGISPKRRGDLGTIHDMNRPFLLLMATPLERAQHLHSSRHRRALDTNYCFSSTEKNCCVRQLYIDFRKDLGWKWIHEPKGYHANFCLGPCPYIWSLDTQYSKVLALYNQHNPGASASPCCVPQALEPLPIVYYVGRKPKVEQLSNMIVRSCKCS

T1 sequence (P01137 30-390 limits assumed): as the sequence (P01137 30-390) above
T3 sequence (P17246 30-390 limits assumed): as the sequence (P04202 30-390) above, with E93D, S99T, L131F, S134T, K202V counted along it
T4 sequence (P04202 30-390 limits assumed): as the sequence (P04202 30-390) above

B1: 20E6_H0.2aL1_hIgG4mut (antibody)
heavy: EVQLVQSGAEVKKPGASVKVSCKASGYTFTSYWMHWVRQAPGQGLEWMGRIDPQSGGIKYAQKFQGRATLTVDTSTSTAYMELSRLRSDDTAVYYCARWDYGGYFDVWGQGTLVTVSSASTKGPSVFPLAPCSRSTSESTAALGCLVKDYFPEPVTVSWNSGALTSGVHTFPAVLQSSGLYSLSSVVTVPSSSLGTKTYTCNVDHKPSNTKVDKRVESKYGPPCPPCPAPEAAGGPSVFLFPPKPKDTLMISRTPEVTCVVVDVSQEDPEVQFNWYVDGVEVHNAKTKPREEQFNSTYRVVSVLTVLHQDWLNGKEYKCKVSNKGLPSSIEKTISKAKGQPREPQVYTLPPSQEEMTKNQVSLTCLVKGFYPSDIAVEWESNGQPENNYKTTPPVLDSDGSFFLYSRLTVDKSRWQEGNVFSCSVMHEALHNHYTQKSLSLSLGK
light: DIQMTQSPSSLSASVGDRVTITCRASQDITNYLNWYQQKPGKAVKLLIYYTSRLHSGVPSRFSGSGSGTDYTLTISSLQPEDFATYFCQQGDTLPWTFGQGTKLEIKRTVAAPSVFIFPPSDEQLKSGTASVVCLLNNFYPREAKVQWKVDNALQSGNSQESVTEQDSKDSTYSLSSTLTLSKADYEKHKVYACEVTHQGLSSPVTKSFNRGEC
Regarding B1, the equilibrium dissociation constant (Kd) in assay [1] was 10.7 nM; in assay [2], 26.1 nM; in assay [3], 11.1 nM; in assay [4], 16.9 nM; in assay [5] it was 0.51 nM; in assay [6], 1.53 nM. Besides, the Kd came to 0.51 nM in assay [7] and 1.31 nM in assay [8]. Also, the off-rate constant (koff) came to 0.0303 s⁻¹ in assay [1]; 0.0524 s⁻¹ in assay [2]; 0.0406 s⁻¹ in assay [3]; 0.0478 s⁻¹ in [4]; 0.00036 s⁻¹ in assay [5]; 0.00143 s⁻¹ in assay [6]. For the same molecule, the values for the koff in [7] and in assay [8] were 0.00087 s⁻¹ and 0.0011 s⁻¹, respectively. Further, the association rate constant (kon) in assay [1] was found to be 2.8e+06 M⁻¹ s⁻¹; in assay [2] it was 2e+06 M⁻¹ s⁻¹; in [3], 3.6e+06 M⁻¹ s⁻¹; in [4], 2.8e+06 M⁻¹ s⁻¹; in assay [5] it was 700000 M⁻¹ s⁻¹; in assay [6] it was 940000 M⁻¹ s⁻¹. Moreover, the kon in [7] came out at 1.7e+06 M⁻¹ s⁻¹; in assay [8], 840000 M⁻¹ s⁻¹.

B2: H0L0 (antibody, human IgG1, kappa, V domains shown)
VH: QVQLVQSGAEVKKPGASVKVSCKASGYTFTSYWMHWVRQAPGQGLEWMGRIDPNSGGIKYNEKFKSRVTMTRDTSISTAYMELSRLRSDDTAVYYCARWDYGGYFDVWGQGTLVTVSS
VL: DIQMTQSPSSLSASVGDRVTITCRASQDITNYLNWYQQKPGKAPKLLIYYTSRLHSGVPSRFSGSGSGTDFTLTISSLQPEDFATYYCQQGDTLPWTFGQGTKLEIKR
notes: also called 20E6_H0L0
For the molecule B2, in assay [9], the binding result is given as “no binding (tested: single dose, 50 µL of 100 ng/µL)”.

B3: H1L0 (antibody, human IgG1, kappa, V domains shown)
VH: QVQLVQSGAEVKKPGASVKVSCKASGYTFTSYWMHWVRQAPGQGLEWIGRIDPNSGGIKYNEKFKSRVTLTVDTSISTAYMELSRLRSDDTAVYYCARWDYGGYFDVWGQGTLVTVSS
VL: DIQMTQSPSSLSASVGDRVTITCRASQDITNYLNWYQQKPGKAPKLLIYYTSRLHSGVPSRFSGSGSGTDFTLTISSLQPEDFATYYCQQGDTLPWTFGQGTKLEIKR
notes: also called 20E6_H1L0
B3: in assay [9], the binding result was “no binding (tested: single dose, 50 µL of 100 ng/µL)”.

B4: H3L0 (antibody, human IgG1, kappa, V domains shown)
VH: QVQLVQSGAEVKKPGASVKVSCKASGYTFTSYWMHWVKQRPGQGLEWIGRIDPNSGGIKYNEKFKSKATLTVDKSSSTAYMELSRLRSDDTAVYYCARWDYGGYFDVWGQGTLVTVSS
VL: DIQMTQSPSSLSASVGDRVTITCRASQDITNYLNWYQQKPGKAPKLLIYYTSRLHSGVPSRFSGSGSGTDFTLTISSLQPEDFATYYCQQGDTLPWTFGQGTKLEIKR
notes: also called 20E6_H3L0
Consider B4, for which the binding result in assay [9] is “no binding (tested: single dose, 50 µL of 100 ng/µL)”.

B5: H2L0 (antibody, human IgG1, kappa, V domains shown)
VH: QVQLVQSGAEVKKPGASVKVSCKASGYTFTSYWMHWVRQAPGQGLEWIGRIDPNSGGIKYNEKFKSRVTLTVDKSSSTAYMELSRLRSDDTAVYYCARWDYGGYFDVWGQGTLVTVSS
VL: DIQMTQSPSSLSASVGDRVTITCRASQDITNYLNWYQQKPGKAPKLLIYYTSRLHSGVPSRFSGSGSGTDFTLTISSLQPEDFATYYCQQGDTLPWTFGQGTKLEIKR
notes: also called 20E6_H2L0
B5: in assay [9], the binding result is “no binding (tested: single dose, 50 µL of 100 ng/µL)”.

B6: 22F9_D102A (antibody, human IgG1, kappa, V domains shown)
VH: QVQLVQPGAEVVKPGASVKLSCKASGYTFTSYWMHWVKQRPGQGLEWIGMIHPNSGSTNYNEKFKSKATLTVDKSSSTAYMELSSLRSEDTAVYYCAYYDYAGFFDVWGQGTLVTVSS
VL: DIQLTQSPSSLSASVGDRVTITCRASKSVSTSGYSYMHWYQQKPGKAPKLLIYLASNLESGVPSRFSGSGSGTDFTLTISSLQPEDFATYYCQHSRELPYTFGGGTKVEIKR
notes: also called 22F9_H5L0 with VH D102A
For B6, the binding result in [10] is listed as “binds”.

B7: 22F9_H5.2L0 (antibody, human IgG1, kappa, V domains shown)
VH: QVQLVQPGAEVVKPGASVKLSCKASGYTFTSYWMHWVKQRPGQGLEWIGMIHPQSGSTNYNEKFKSKATLTVDKSSSTAYMELSSLRSEDTAVYYCAYYDYAGFFDVWGQGTLVTVSS
VL: DIQLTQSPSSLSASVGDRVTITCRASKSVSTSGYSYMHWYQQKPGKAPKLLIYLASNLESGVPSRFSGSGSGTDFTLTISSLQPEDFATYYCQHSRELPYTFGGGTKVEIKR
notes: also called 22F9_H5L0 with the double N54Q/D102A mutation
Consider B7, for which the binding result in [10] is “binds”.

B8: 22F9_H5L1 (antibody, human IgG1, kappa)
heavy: not shown
light: DIQLTQSPSSLSASVGDRVTITCRASKSVSTSGYSYMHWYQQKPGKPPKLLIYLASNLESGVPSRFSGSGSGTHFTLTISSLQPEDFATYYCQHSRELPYTFGGGTKVEIKRTVAAPSVFIFPPSDEQLKSGTASVVCLLNNFYPREAKVQWKVDNALQSGNSQESVTEQDSKDSTYSLSSTLTLSKADYEKHKVYACEVTHQGLSSPVTKSFNRGEC
In the case of B8, the “Binding (nm)” value in assay [11] stood at 0.08 nm. In assay [12], this molecule had a Kd of 2.34 nM, a koff of 0.00122 s⁻¹ and a kon of 519000 M⁻¹ s⁻¹.

B9: 22F9_H5L2 (antibody, human IgG1, kappa)
heavy: not shown
light: DIQLTQSPSSLSVSVGDRATITCRASKSVSTSGYSYMHWYQQKPGKPPKLLIYLASNLESGVPSRFSGSGSGTHFTLTISSVQPEDFATYYCQHSRELPYTFGGGTKLEIKRTVAAPSVFIFPPSDEQLKSGTASVVCLLNNFYPREAKVQWKVDNALQSGNSQESVTEQDSKDSTYSLSSTLTLSKADYEKHKVYACEVTHQGLSSPVTKSFNRGEC
Regarding B9, the “Binding (nm)” value in assay [11] turned out to be 0.06 nm. Also, in assay [12], the affinity, expressed as Kd, was 3.91 nM; the koff turned out to be 0.00246 s⁻¹; the kon was determined as 629000 M⁻¹ s⁻¹.

B10: 28G11_mIgG2a (antibody, V domains shown)
VH: EVKLVESGGGLVQPGGSLSLSCAASGFTFTDYYMSWVRQPPGKALEWLGFIRNKPNGYTTEYSASVKGRFTISRDNSQSILYLQMNVLRAEDSATYYCARYTGGGYFDYWGQGTTLTVSS
VL: DIQMTQTTSSLSASLGDRLTISCRASQDISNYLNWYQQKPDGTVKLLIYYTSRLHSGVPSRFSGSGSGTDYSLTISNLEQADIATYFCQQGDTLPWTFGGGTKLEIK
B10: the “IC50 of inhibition of TGFβ1 activation” value was 1.6 µg/mL in assay [13] and 0.8 µg/mL in assay [14].

Usually Kd stands for the equilibrium constant for the complex coming apart. In general, koff refers to a measure of how fast the partners let go of each other. By kon is commonly meant a measure of how fast the partners come together.

Source of the values: patent publication US20220017612A1 (TILOS THERAPEUTICS, published 2022).
